Source: the DeepSol protein solubility set

Assay: soluble on expression in E. coli; label from the status in PepcDB or PDB records

In the case of “MGSDKIHHHHHHMKVWPVKHSPLLRQPERFIARSELQALIRNVTQNLVNIKDESGQFLLRLDDGRVIDTKGWAGWEWTHGVGLYGIYQYYQQTGDIEMRDIIDRWFADRFAEGATTKNVNTMAPFLTLAYRFEETGRMAYLPWLESWAEWAMHEMPRTEQGGMQHMTLAEENHQQMWDDTLMMTVLPLAKIGKLLNRPQYVEEATYQFLLHVQNLMDRETGLWFHGWNYEGRHNFARARWARGNSWLTMVIPDFLELVDLPEGNAVRRYLITVLDAQIAALAECQDDSGLWHTLLDDPHSYLEASATAGFAYGILKAVRKRYVGQHYAGVAEKAIRGIVQNISPQGELLQTSFGTGMGSDLDFYRQIPLTSMPYGQAMAILCLTEYLRKYF”, the “soluble on expression in E. coli” value was “not soluble”.

With “MQKPKLGKIKLLSAKEQVAAVLRKAILSRELVEGQEITLEGIAGMVGVSSMPVREAFQILAADGLIKVRPNKGAVVLGINEQTIREHYEIRALLESEAVAKASRPGSDISRIAQVHYAAEKALAENNSAEYSDLNQAFHMEIWNVAGNEKMKMLLCNMWNGLSMGHKVTEEEYAVISIQEHKSILQALELHDETLARQRMREHIIRSMENMLTRYVGDPSA” the “soluble on expression in E. coli” value was “not soluble”.

In the case of “MIGVVIPAHNEEQLLADCLRCALKAASHPELNEDVAILVVLDSCSDGSLDIARQFAVQHLQLQVRNVGRARAAGAQLLLQAGARWLSCTDADSRVPEDWLVAQLALGADAVCGTVTVDRWSESFEPQARIRYHDAYQDSDGHRHIHGANLGISAAAYVRAGGFEALACHEDVQLVRQLQRCGASIAWSRHPQVITSGRLDSRAKGGFGDYLKGLNEPCAGLLEHHHHHH”, the “soluble on expression in E. coli” value was “not soluble”.

For “MLLVSGCSGELYSSHTHSLRWFCQSPEGCEREAEVKALARVLLYTDTFTLYTDYGQFAVDFVQRVPSDELPRECDALYGLSLFGHELESSTLCSVGGDAYEMRISVPNRNPSSASEWLAEMRPL”, the “soluble on expression in E. coli” value was “not soluble”.

In the case of “MGSDKIHHHHHHMAEIDFIGRYHNATKRDYVQRVVEYDKAECAATAKQWGFDYWDGDRRHGFGGMRYDGRWLPLAEDLVRHYGLKAGDKVLDIGCGKAFLLYEMTRACPGLTVAGLDISEYGINNAKEEVRPFLTLGNATRLPWPDRHFDLVISINTFHNLQIHELDQAVREMQRVSTGRGYICVESYRDESEKANLLYWQLTCESFHRPEGWRWVYDQAGYTGDHGFIYFQ”, the “soluble on expression in E. coli” value was “not soluble”.

In the case of “MKKVEVLKRLENAGVIAVLRADSKEEALKISHAVVEGGMIGLELTFTVPQADEVIRSLVETYHDEKDIVIGAGTVLDAVTARLAIMAGAEFIVSPSFNRETAEICNLYQVPYLPGCMTITEMQTALKSGVDIVKLFPGSTYGPSIISAFQAPLPYLNIMPTGGVSLDNMASWFEAGVTAVGVGGNLLAHAKTGEFGKVTALAKQYMAKFREIKEN”, the “soluble on expression in E. coli” value was “not soluble”.

For “MSDSNTSSLPRAAQLEPDAAPAVAVLQQALQWQVIFWSGEATDRDRMRWQSWLAADPAHARAWAQVQRTDEQLQTLASPAAEVLRSADARRCKARRTVLGMAGLLAGAGIMGCGLRQTAQWQMMMADDHTGYGERRNIELADGTQVTLGSATAIDVCYSAQARQLLLRTGEIFIVTAPDSADRPFLVQTTRGSVQALGTRFNVRESGEQIQVAVQDGAVAIRPAGMNPGDVVRLDAGQQTCFDHTKVEAAEALQISATAWTRGLLVAERMRLEDFLVELGRYRSGVLRCDPAVRDLIVSGVYSLDDTDQSLRLLAQALPVQVQTVTRWWTIVGPRPMK”, the “soluble on expression in E. coli” value was “not soluble”.

For “MSLAEKPIKLGVLEDQSGDFAVATIGKVHAIQLAADEINKAGGIMGRPLELVVYDTQSDNTRYQEFMRRVLQRDKADAVFAGFSSASREAYRPIVDQLNGLAFYNNQYEGGVCDGHMIVTGAVPEQQFSTLIPWMMEKYGKKVYTLAADYNFGQISAEWVRNIVKQHGGEMAGVEFIPLGVSQFSQSIQNIQKAKPDFVVTLLVGTAQASYYEQAASANVNLPMASSVNVGQGYEHKRFKPPSLKDMYVTTNYIEEIDSPQSKAFLAKFKAKFPNEPYVNQEAENSYLAVYLYKQMVERAKSTNRDEIRKVIAQGDVCMDAPEGKVCIDPKSQHMSHTIYLAHVNADHSIDFPKVWPDIKPYWLGEAGCDLTKKDPMAQYTPSNEGHHHHHH”, the “soluble on expression in E. coli” value was “soluble”.

In the case of “MITIKKQEIVKLEDVLHLYQAVGWTNYTHQTEMLEQALSHSLVIYLALDGDAVVGLIRLVGDGFSSVFVQDLIVLPSYQRQGIGSSLMKEALGNFKEAYQVQLATEETEKNVGFYRSMGFEILSTYDCTGMIWINREK”, the “soluble on expression in E. coli” value was “soluble”.

With “MSPFMEKTLLLLGVLCCIQVTTALMCYDCNSEFDPRCGDPFEPYSIGEVNCSKQEPLEHLKDKYKPTLCRKTVQKIYGKTRIVRGCGYIPDENTDNKCVRRSGTHDVAAIYCSCTKDLCNGANSPAGQWMMLPLIVAAGLALLLNSRHTIRFQSS” the “soluble on expression in E. coli” value was “not soluble”.

In the case of “IPGPGFTAGAQGSCSLRCGAQDGLCSCHPTCSGLGTCCEDFLDYCLEILPSSGSMMGGKDFVVQHLKWTDP”, the “soluble on expression in E. coli” value was “soluble”.

In the case of “MSLSDINNMAYGISDMLGSIDNLAMFDLVVPHFRGKENECLFGMFGRATTTLQGGKIAKHVQEIFAETLTAHLHKLEPGEEPSEALRRTFLWGDRKAFEFFSGKLQLEKERKPSWTSFASFDSMFRGWTPGVNSVLRTGASGAVVYLVDKVLHVGSIGDTLVVLSRKGDAELLSKRHDPTDREESARIRKAEAWVSTKGFVNDDKDLDISRAFGYWHECPAVNAAPEIRTRRLQESDEFVIIGNHALWQFCSYQTAVDIARTERDDPMIAAQKLRDFAISYGAEGNVMVMVVNVSDLFLGKEGHHHHHH”, the “soluble on expression in E. coli” value was “not soluble”.

In the case of “MFALIQRGQIYTDRAGYPVEITRSTEHSVFFRRMDGRTGRVRIGEFSSLFEHIDHLEYHKILAETEQEKHLKKLRAMQRK”, the “soluble on expression in E. coli” value was “not soluble”.

With “MSLGAMKRLALLVPERANIASLENARQGFLAANGFLRERGCAPRFDVRLVAATPQVRLDHGRITVQADTVLEAVGEVDLCVVPPIQGDPQPALQENGALIDWLAGYYKNGGEVASLCVGAALLAAGGVLDGQRAVVHWAAQSDFGRLFPAVRWVSDRVVLEANGIYTSGGAFSAAHLVLHLVDKYTDRETAIWCAKLFQLDWSREGHHHHHH” the “soluble on expression in E. coli” value was “soluble”.

For “MGSDKIHHHHHHMNTNQLIEAFRKFLPAEAILHEAEDLRPYECDALSAYRQLPMIVVLPRTEAEIAAILQTCQAERIPVVARGSGTGLSGGALPHAEGVLLSLARLNHILEIDPAAGTARVQPGVRNLAISEAAAYYGMYYAPDPSSQIACSIGGNVAENSGGVHCLKYGLTVHNILRLRVLTIEGDLLEIGADALDSPGFDLLALMTGSEGMLGIVTEITVRLLPKPETVKLVMAVFDDVRKAGEAVASVIQAGIIPAGMEMMDKITIHAVEDFVHAGYDLEGAAILLCESDGMAEEVADEIERIRTILQASGATRISLAQDEAERQRFWAGRKAAFPAAGRVSPDYYCMDGTIPRKHLAHVLEQIEQLSAEYGLRCMNVFHAGDGNLHPLILYDANQPGELQKAEAFGARILEICIEAGGSLTGEHGVGIEKLNQMCLQFNDAERNRFHAIKAAFDPQSLLNPGKAIPELHRCAEFGAMHIHRGAEKFPEIPRF”, the “soluble on expression in E. coli” value was “not soluble”.

In the case of “MSLRDAKTWFTDTVLKDQNGRELRFYSDVLKDKVVMLNVIFTHCTDACPLITRKLREVREAMGPALAAQVTFVSISSDPLNDTPEALKAFAAKQGVDGPNWLFLTGDKANVDLVLGRIGQFLPSPEQHSTQLIAGDVAGKRWSKIRPDAPPAAIAQRMQLLTQPLAGREGHHHHHH”, the “soluble on expression in E. coli” value was “soluble”.

For “MQGQGDLFESTDWQEVRQGKLFYQPNFLSQQEADTYFSTLMSTLPWQQERITIFGKSVLQPRLQTWHGDAPYTYSGLTMAPHPWTSELSSLKARCESLANTPFNSVLANLYRDGQDSMGWHQDNEPELGRNPVIASLNLGDTRRFVLRNLHCKTQIEYELGHGALLIMAGELQHHWRHCVPKTAKPKGERINLTFRHILNYLEHHHHHH”, the “soluble on expression in E. coli” value was “soluble”.

In the case of “MKRIITLTVVNRSGVLNRITGLFTKRHYNIESITVGHTETAGVSRITFVVHVEGENDVEQLTKQLNKQIDVLKVTDITNQSIVQRELALIKVVSAPSTRTEINGIIEPFRASVVDVSRDSIVVQVTGESNKIEALIELLKPYGIKEIARTGTTAFARGTSKRRHPIKQYLLYKTLEHHHHHH”, the “soluble on expression in E. coli” value was “soluble”.

In the case of “MSYNYVVTAQKPTAVNGCVTGHFTSAEDLNLLIAKNTRLEIYVVTAEGLRPVKEVGMYGKIAVMELFRPKGESKDLLFILTAKYNACILEYKQSGESIDIITRAHGNVQDRIGRPSETGIIGIIDPECRMIGLRLYDGLFKVIPLDRDNKELKAFNIRLEELHVIDVKFLYGCQAPTICFVYQDPQGRHVKTYEVSLREKEFNKGPWKQENVEAEASMVIAVPEPFGGAIIIGQESITYHNGDKYLAIAPPIIKQSTIVCHNRVDPNGSRYLLGDMEGRLFMLLLEKEEQMDGTVTLKDLRVELLGETSIAECLTYLDNGVVFVGSRLGDSQLVKLNVDSNEQGSYVVAMETFTNLGPIVDMCVVDLERQGQGQLVTCSGAFKEGSLRIIRNGIGIHEHASIDLPGIKGLWPLRSDPNRETYDTLVLSFVGQTRVLMLNGEEVEETELMGFVDDQQTFFCGNVAHQQLIQITSASVRLVSQEPKALVSEWKEPQAKNISVASCNSSQVVVAVGRALYYLQIHPQELRQISHTEMEHEVACLDITPLGDSNGLSPLCAIGLWTDISARILKLPSFELLHKEMLGGEIIPRSILMTTFESSHYLLCALGDGALFYFGLNIETGLLSDRKKVTLGTQPTVLRTFRSLSTTNVFACSDRPTVIYSSNHKLVFSNVNLKEVNYMCPLNSDGYPDSLALANNSTLTIGTIDEIQKLHIRTVPLYESPRKICYQEVSQCFGVLSSRIEVQDTSGGTTALRPSASTQALSSSVSSSKLFSSSTAPHETSFGEEVEVHNLLIIDQHTFEVLHAHQFLQNEYALSLVSCKLGKDPNTYFIVGTAMVYPEEAEPKQGRIVVFQYSDGKLQTVAEKEVKGAVYSMVEFNGKLLASINSTVRLYEWTTEKDVRTECNHYNNIMALYLKTKGDFILVGDLMRSVLLLAYKPMEGNFEEIARDFNPNWMSAVEILDDDNFLGAENAFNLFVCQKDSAATTDEERQHLQEVGLFHLGEFVNVFCHGSLVMQNLGETSTPTQGSVLFGTVNGMIGLVTSLSESWYNLLLDMQNRLNKVIKSVGKIEHSFWRSFHTERKTEPATGFIDGDLIESFLDISRPKMQEVVANLQYDDGSGMKREATADDLIKVVEELTRIH”, the “soluble on expression in E. coli” value was “soluble”.

In the case of “CDKSANPKQPTQGMSVVTSFYPMYAMTKEVSGDLNDVRMIQSGAGIHSFEPSVNDVAAIYDADLFVYHSHTLEAWARDLDPNLKKSKVNVFEASKPLTLDRVKGLEDMEVTQGIDPATLYDPHTWTDPVLAGEEAVNIAKELGHLDPKHKDSYTKKAKAFKKEAEQLTEEYTQKFKKVRSKTFVTQHTAFSYLAKRFGLKQLGISGISPEQEPSPRQLKEIQDFVKEYNVKTIFAEDNVNPKIAHAIAKSTGAKVKTLSPLEAAPSGNKTYLENLRANLEVLYQQLK”, the “soluble on expression in E. coli” value was “soluble”.

For “GEFPLQTKTDIHAVLASNGRIIYISANSKLHLGYLQGEMIGSFLKTFLHEEDQFLVESYFYNEHHLMPCTFRFIKKDHTIVWVEAAVEIVTTRAERTEREIILKMKVLEEE”, the “soluble on expression in E. coli” value was “soluble”.

In the case of “MGSDKIHHHHHHMNLEEENTIFKPLYSLKHSPINAYFSKNSDDFVVRERPLYEFSGKGEHLILHINKKDLTTNEALKILSEASGVKIRDFGYAGLKDKQGSTFQYLSMPKKFESFLSNFSHPKLKILEIFTHENKLRIGHLKGNSFFIRLKKVLPSDALKLEQALMNLDKQGFANYFGYQRFGKFGDNYKEGLEILRGKKMKNVKMKEFLISAFQSELFNRYLSKRVELSHFANDFSEKELIQIYKISKEEAKELKKQEQFFKLLKGEVLGHYPFGKCFLCEDLSAELGRFKARDISAMGLLIGAKAYETGEGLALNLENEIFKDTLEFKAKMQGSRRFMWGYLEELKWRYDEEKAHFCIEFFLQKGSYATVVLEEILHKNLFE”, the “soluble on expression in E. coli” value was “not soluble”.
